The source of these data is paper PMC8528422 (Science Advances, 2021).

Where a chain is given by its changes, count along the chain named. Numbers in names are those of the source.

The chains are these.
B1: FleN truncated by 25 amino acids at the C terminus, residues 1 to 255 (domain or fragment, Pseudomonas aeruginosa, UniProt G3XD64 1-255, looked up)
chain: MKQMGSMHPVQVIAVTGGKGGVGKTNVSVNLALALADLGRRVMLLDADLGLANVDVLLGLTPKRTLADVIEGRCELRDVLLLGPGGVRIVPAASGTQSMVHLSPMQHAGLIQAFSDISDNLDVLVVDTAAGIGDSVVSFVRAAQEVLLVVCDEPTSITDAYALIKLLNRDHGMTRFRVLANMAHSPQEGRNLFAKLTKVTDRFLDVALQYVGVIPYDESVRKAVQKQRAVYEAFPRSKASLAFKAVAQKVDSWPL
B2: FleN, full length (residues 1 to 280), wild type (natural protein, Pseudomonas aeruginosa, UniProt G3XD64 1-280, looked up)
chain: MKQMGSMHPVQVIAVTGGKGGVGKTNVSVNLALALADLGRRVMLLDADLGLANVDVLLGLTPKRTLADVIEGRCELRDVLLLGPGGVRIVPAASGTQSMVHLSPMQHAGLIQAFSDISDNLDVLVVDTAAGIGDSVVSFVRAAQEVLLVVCDEPTSITDAYALIKLLNRDHGMTRFRVLANMAHSPQEGRNLFAKLTKVTDRFLDVALQYVGVIPYDESVRKAVQKQRAVYEAFPRSKASLAFKAVAQKVDSWPLPANPRGHLEFFVERLVQHPATGSAV
B3: FleN D48A (natural protein, Pseudomonas aeruginosa, UniProt G3XD64 1-280, looked up)
chain: B2 chain with D48A
B4: FleQ AAA+ ATPase (central) domain, residues 142 to 395 (domain or fragment)
chain: not shown
modifications: biotin (EZ-Link NHS-PEG4-Biotin) for the BLI assay
B5: FleN L263W (natural protein, Pseudomonas aeruginosa, UniProt G3XD64 1-280, looked up)
chain: B2 chain with L263W

The data set “cross-linking” deals with the molecule itself. Kind of data set: cross-linking.
For data set [1], the target named is FleQ, full length (FleQFL) (Pseudomonas aeruginosa, UniProt G3XCV0 1-490, biotin (EZ-Link NHS-PEG4-Biotin) for the BLI assay). The data set can be described thus: BLI. (In general: Biolayer interferometry detects binding as a change in optical thickness at a sensor tip.)
The data set “crystal structure” concerns the molecule itself. Kind of data set: crystal structure.
Data set [2] addresses B2. Kind of data set: BLI.

FleQ, full length (FleQFL), sequence (G3XCV0 whole entry): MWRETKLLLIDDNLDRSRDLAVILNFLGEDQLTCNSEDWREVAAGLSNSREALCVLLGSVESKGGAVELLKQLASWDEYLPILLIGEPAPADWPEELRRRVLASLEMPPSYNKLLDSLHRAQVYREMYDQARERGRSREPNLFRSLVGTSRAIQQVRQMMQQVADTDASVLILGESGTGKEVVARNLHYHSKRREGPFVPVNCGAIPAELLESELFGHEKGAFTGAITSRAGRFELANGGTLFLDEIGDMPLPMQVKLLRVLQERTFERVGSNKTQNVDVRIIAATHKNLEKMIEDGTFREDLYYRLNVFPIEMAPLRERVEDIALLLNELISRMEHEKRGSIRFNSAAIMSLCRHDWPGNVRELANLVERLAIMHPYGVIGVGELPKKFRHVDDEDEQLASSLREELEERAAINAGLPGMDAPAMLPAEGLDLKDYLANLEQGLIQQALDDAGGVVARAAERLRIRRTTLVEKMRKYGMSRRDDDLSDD

For orientation: stoichiometry N means a count of units in the complex or per binding partner. B1: the “stoichiometry N” value in the data set “cross-linking” turned out to be 2. A word on the Kd: it is the equilibrium constant for the complex coming apart. B2 yielded a Kd in data set [1] of 340 nM. In the data set “crystal structure”, the “stoichiometry N” value is 2. Consider B3, for which the binding result in data set [1] is “binds”.

For B4, the Kd in data set [2] is 260 nM. That is a sub-micromolar value. As to B5, the “fold change of KD against WT FleN” value in data set [1] stood at 100 fold. For the same molecule, the “stoichiometry N” value in the data set “cross-linking” was 2.
